Here are results for one molecule from WO2008044032A2 (dated 2008).

The assay addresses T1, CD20 on the CD20+ human Daudi Burkitt lymphoma cell line (human, UniProt P11836 1-297).
T1 construct: whole, on cells; also called Daudi cells
T1 sequence (looked up): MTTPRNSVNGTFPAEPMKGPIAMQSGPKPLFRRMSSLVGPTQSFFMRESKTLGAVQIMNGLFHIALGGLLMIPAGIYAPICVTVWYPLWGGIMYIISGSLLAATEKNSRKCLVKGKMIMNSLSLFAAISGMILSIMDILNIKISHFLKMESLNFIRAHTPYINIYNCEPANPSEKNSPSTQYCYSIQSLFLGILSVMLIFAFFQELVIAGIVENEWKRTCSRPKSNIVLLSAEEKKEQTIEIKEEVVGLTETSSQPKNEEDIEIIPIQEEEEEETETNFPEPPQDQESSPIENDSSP
The assay is described as follows: FACS binding assay on CD20+ Daudi cells, serial dilutions of antibody.

B1: chimeric anti-CD20 antibody (unmodified chimeric Leu 16) (antibody, human IgG1, V domains shown)
VH: EVQLQQSGAELVKPGASVKMSCKASGYTFTSYNMHWVKQTPGQGLEWIGAIYPGNGDTSYNQKFKGKATLTADKSSSTAYMQLSSLTSEDSADYYCARSNYYGSSYWFFDVWGAGTTVTVSS
VL: DIVLTQSPAILSASPGEKVTMTCRASSSVNYMDWYQKKPGSSPKPWIYATSNLASGVPARFSGSGSGTSYSLTISRVEAEDAATYYCQQWSFNPPTFGGGTKLEIK
notes: Only the variable regions are printed
Take B1: the binding result is on record as “binds”.
